Measurements as given in patent US20170298113A1 (TEL HASHOMER MEDICAL RESEARCH INFRASTRUCTURE AND SERVICES, published 2017).
*1 amine or outer side, *2 acyl side, *3 side chain or, on linkers, in order; H or OH if unused. Bridges are numbered along the chain shown (N, C = ends). Primed or numbered codes have the meaning given here. [ ]: non-standard residue; d: D form. N(2-mercaptoethyl)Gly = O=C(CN(CCS[*:3])[*:1])[*:2]; FITC′ = fluorescein isothiocyanate; GABA = NCCCC(=O)O

Tests used:
[1] = target: T1, human somatostatin receptor subtype SSTR3 (human, UniProt P32745 1-418); test: FACS, transfected HEK-293 cells; row normalised to highest
T1 construct: whole, on cells
T1 sequence (P32745 whole entry): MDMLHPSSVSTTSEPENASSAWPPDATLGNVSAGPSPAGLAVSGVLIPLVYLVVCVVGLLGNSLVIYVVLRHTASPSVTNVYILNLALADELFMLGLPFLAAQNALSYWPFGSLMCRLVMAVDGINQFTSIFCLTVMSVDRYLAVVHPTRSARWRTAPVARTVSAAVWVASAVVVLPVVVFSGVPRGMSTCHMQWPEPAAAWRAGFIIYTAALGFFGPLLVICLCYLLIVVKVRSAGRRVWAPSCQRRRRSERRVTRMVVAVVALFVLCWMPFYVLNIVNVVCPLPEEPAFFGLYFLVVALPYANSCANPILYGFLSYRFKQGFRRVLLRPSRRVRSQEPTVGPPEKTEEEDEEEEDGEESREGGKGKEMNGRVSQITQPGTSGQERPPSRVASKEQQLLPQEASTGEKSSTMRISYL
Procedure: (§1) Biological activity assessment of the compounds to define a specific affinity to each subtype was performed by FACS and fluorescence imaging methods.
(§2) The transfection process is illustrated in FIG. 1. The transient transfection process was carried out before each experiment. Briefly, HEK cells were cultured in standard cell growth conditions. For testing, the cells were transferred into 96-well plates. The tested compounds were dissolved in DMSO and then diluted in a buffer solution to a final DMSO concentration of 5% as a composition according to the teachings herein. Various amounts of the thus-prepared compositions were added to the cells in medium in the 96-well plates and allowed to incubate for between 1 and 24 hours. Binding was determined using fluorescent microscopy and FACS.
(§3) The cells were incubated for additional time intervals ranging from 0.5-24 hr. At the end of the incubation period, supernatant was discarded and the cells were washed twice with cold PBS. The plates were examined using IX81 inverted microscope (Olympus, Japan) equipped with PR71 digital camera. Additionally, a FACS assay was used for quantitative analysis.

[2] = target: T2, human somatostatin receptor subtype SSTR1 (human, UniProt P30872 1-391); test: as above
T2 construct: whole, on cells
T2 sequence (P30872 whole entry): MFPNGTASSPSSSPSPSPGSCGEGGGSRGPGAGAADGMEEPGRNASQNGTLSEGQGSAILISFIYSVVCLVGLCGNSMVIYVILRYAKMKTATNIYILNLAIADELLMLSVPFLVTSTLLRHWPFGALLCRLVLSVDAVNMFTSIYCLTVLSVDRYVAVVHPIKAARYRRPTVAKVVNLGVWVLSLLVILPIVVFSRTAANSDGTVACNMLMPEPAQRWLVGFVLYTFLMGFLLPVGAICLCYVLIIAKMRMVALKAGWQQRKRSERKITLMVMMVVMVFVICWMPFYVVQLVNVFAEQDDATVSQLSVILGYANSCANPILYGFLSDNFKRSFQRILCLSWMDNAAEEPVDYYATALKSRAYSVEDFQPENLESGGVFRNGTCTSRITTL
Procedure: as §1, §2, §3

[3] = target: T3, human somatostatin receptor subtype SSTR4 (human, UniProt P31391 1-388); test: as above
T3 construct: whole, on cells
T3 sequence (P31391 whole entry): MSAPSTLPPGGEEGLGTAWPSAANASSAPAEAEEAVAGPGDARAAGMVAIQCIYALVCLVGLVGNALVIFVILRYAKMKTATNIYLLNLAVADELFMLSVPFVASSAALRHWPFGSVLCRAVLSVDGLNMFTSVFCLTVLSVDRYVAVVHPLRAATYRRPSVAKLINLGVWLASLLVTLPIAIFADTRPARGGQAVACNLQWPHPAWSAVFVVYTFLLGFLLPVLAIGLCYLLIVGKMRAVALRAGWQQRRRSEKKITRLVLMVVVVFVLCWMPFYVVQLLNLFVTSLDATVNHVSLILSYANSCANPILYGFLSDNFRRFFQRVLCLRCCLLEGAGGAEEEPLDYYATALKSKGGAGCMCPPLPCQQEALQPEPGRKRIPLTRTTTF
Procedure: as §1, §2, §3

[4] = target: T4, human somatostatin receptor subtype SSTR5 (human, UniProt P35346 1-364); test: as above
T4 construct: whole, on cells; also called SSTRS
T4 sequence (P35346 whole entry): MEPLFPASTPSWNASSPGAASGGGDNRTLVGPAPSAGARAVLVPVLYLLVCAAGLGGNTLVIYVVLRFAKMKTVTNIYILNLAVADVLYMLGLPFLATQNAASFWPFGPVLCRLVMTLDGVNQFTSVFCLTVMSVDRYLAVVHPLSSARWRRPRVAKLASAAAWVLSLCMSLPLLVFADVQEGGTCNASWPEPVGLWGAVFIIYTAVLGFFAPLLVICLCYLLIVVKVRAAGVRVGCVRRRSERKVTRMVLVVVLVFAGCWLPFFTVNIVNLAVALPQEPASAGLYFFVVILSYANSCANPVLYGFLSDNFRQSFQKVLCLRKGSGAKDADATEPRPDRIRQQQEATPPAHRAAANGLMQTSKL
Procedure: as §1, §2, §3

[5] = target: T5, human somatostatin receptor subtype SSTR2 (human, UniProt P30874 1-369); test: as above
T5 construct: whole, on cells
T5 sequence (P30874 whole entry): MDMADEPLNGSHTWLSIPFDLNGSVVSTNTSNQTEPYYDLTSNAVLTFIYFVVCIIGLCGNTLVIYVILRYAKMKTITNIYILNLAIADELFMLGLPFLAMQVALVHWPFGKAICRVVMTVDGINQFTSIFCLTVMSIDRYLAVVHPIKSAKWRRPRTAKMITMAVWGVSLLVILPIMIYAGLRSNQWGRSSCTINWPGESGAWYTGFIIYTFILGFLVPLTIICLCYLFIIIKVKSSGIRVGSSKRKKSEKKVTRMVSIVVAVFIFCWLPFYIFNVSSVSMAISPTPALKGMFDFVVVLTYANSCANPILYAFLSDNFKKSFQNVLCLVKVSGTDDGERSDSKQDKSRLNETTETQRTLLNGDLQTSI
Procedure: as §1, §2, §3

[6] = target: T1, human somatostatin receptor subtype …; test: FACS, transfected HEK-293 cells
Procedure: as §1, §2, §3

[7] = target: T3, human somatostatin receptor subtype …; test: FACS, transfected HEK-293 cells
Procedure: as §1, §2, §3

[8] = target: T4, human somatostatin receptor subtype …; test: FACS, transfected HEK-293 cells
Procedure: as §1, §2, §3

[9] = target: T5, human somatostatin receptor subtype …; test: FACS, transfected HEK-293 cells
Procedure: as §1, §2, §3

[10] = target: T1, human somatostatin receptor subtype …; test: FACS, transfected HEK-293 cells; normalised to Compound 1
Procedure: as §1, §2, §3

[11] = target: T2, human somatostatin receptor subtype …; test: as above
Procedure: as §1, §2, §3

[12] = target: T3, human somatostatin receptor subtype …; test: as above
Procedure: as §1, §2, §3

[13] = target: T4, human somatostatin receptor subtype …; test: as above
Procedure: as §1, §2, §3

[14] = target: T5, human somatostatin receptor subtype …; test: as above
Procedure: as §1, §2, §3

B1: Compound 9 (peptide)
peptide: {FITC′-GABA}-CRF[dW]KTF[N(2-mercaptoethyl)Gly]-NH2
modifications: disulfide 1-8
notes: Synthetic cyclic peptide-fluorescent agent conjugate; also called 21
Adjusted binding affinity [1]: 0.7 | Adjusted binding affinity [2]: 0 | Adjusted binding affinity [3]: 0.75 | Adjusted binding affinity [4]: 1 | Adjusted binding affinity [5]: 0.5 | Relative binding affinity [6]: 14% | Relative binding affinity [7]: 15% | Relative binding affinity [8]: 20% | Relative binding affinity [9]: 10% | Binding affinity relative to Compound 1 [10]: 82 % of Compound 1 | Binding affinity relative to Compound 1 [11]: 0 % of Compound 1 | Binding affinity relative to Compound 1 [12]: 67 % of Compound 1 | Binding affinity relative to Compound 1 [13]: 70 % of Compound 1 | Binding affinity relative to Compound 1 [14]: 154 % of Compound 1
